We go through one molecule from paper PMC10377036, “Biological Recognition-Based Electrochemical Aptasensor for Point-of-Care Detection of cTnI”.

The target of the series is cardiac troponin I (cTnI) (UniProt P19429 2-210). The series is described as follows: electrochemical aptasensor (CV, SWV); 50 ng/mL cTnI in CV feasibility test; electrode blocked with MCH; sensor LOD 8.46 pg/mL, linear range 10 pg/mL-100 ng/mL (not a Kd); SWV in PBS (0.01 M PB, 150 mM NaCl, pH 7.4); 10 uL cTnI incubated on electrode 10 min at room temperature. The note with it: protein: commercial; label: methylene blue; single strand.
Sequence of cardiac troponin I (cTnI) (P19429 2-210): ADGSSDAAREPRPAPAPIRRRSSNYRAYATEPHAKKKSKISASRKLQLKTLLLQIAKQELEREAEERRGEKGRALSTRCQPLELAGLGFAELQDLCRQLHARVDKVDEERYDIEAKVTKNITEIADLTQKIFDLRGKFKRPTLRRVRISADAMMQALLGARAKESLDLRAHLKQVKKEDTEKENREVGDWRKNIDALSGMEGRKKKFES

B1: Apt (MB-Apt-SH) (ssDNA)
DNA: CGTGCAGTACGCCAACCTTTCTCATGCGCTGCCCCTCTTA
modifications: 5' thiol (SH); 3' methylene blue (MB)
With B1, the binding result is “binds”.
